Source: publication PMC5294778

Biological target: FBXW7 (UniProt Q8VBV4)
Assay: anti-FLAG co-IP, MCL1-HA blot
Conditions: reference: WT MCL1-HA; sites S140

- binding against the reference: weaker
Substance: MCL1 (from UniProt P97287) MCL1-HA S140A
